Data as given in the domain aggregation screens of Martell et al. (2025).

Assay: soluble fraction after stress (log2 fold change); higher = more stays soluble; pooled small domains, quantitative proteomics
Settings: stress: 75 degC
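Note: 20 min heating vs room temperature control held 20 min.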

Row | Sequence | soluble fraction (log2)
1 | HMDSTSEILKVIQNIVKKEDPYHPLSDDKISNLLNDLDYQISRRTVAKYRDILTIPSSSKRRKL | -0.256
2 | HMDSVEMFSPILGMNANMDLDTLTQTRDKLLEKYKDDEQLIGLVNKTYDYFNEILLKQFLIEELEKNE | 0.0898
3 | HMDSVFGVVTSSDGVKLRKEASTISKVLTVLPYGTEVDVDRIGSEWIRIVTDGGQKGYVSADYLAVREGER | 0.682
4 | HMDSVPEEQLRQLALDKAKEVKRWGQPVELAKMNAHDRRIIHINLQDDPEIETRSEGEGALKSVIISLKK | 0.0979
5 | HMDSYADVLSDYRGKYKTNTISGLKGLRDKIREDMLAAADSLDFEKAALLRDEMNDLNKKIELKEKT | ≥ 1.04
6 | HMDTERLYAYAWQTHLKQFGLNISEEEIRQFVGVDDRIVHSFYAKTVPLDDFENTMFSLGEIIQQSL | -2.58
7 | HMDTFNVIARQEIDGILYEYKIMTVEDYKNQSPENLAVIYENIKAVMEQYDLSEDDADAILVDLLG | -1.14
8 | HMDTIRINSGSTVKEVAEYLGIPVPEVIKKLMSMGELATLTKTLSDDHIEVLAEEFEKKIKIVHVGEEAD | -0.458
9 | HMDTITDSYTLEKGKLRAKVMEYELPESKKKEYSATFEYRGVYYHMIGIIEKADFEEILKNLHFP | -0.168
10 | HMDTIVVAARSIQARQTLTESDLRVEEQEIGAASDKYYTDIAEAVGLVSSRRLSPGQPILRTM | -0.352
11 | HMDTLKDFISGVSIVFENKYSVGDNVTIGDFRGDVIELGMKTTKIRAYTGEVLIIPNHLVEKVINH | -1.56
12 | HMDTLRARQEAAYRFLSAIAGDWRNYEEANRALFAGDAARFQDLTESWPADVRDHARHLASAAFSS | -0.8
13 | HMDTNAIIGLRIKNLRTEKKYTLKYLSENTGLSIGFLSQLERGMTSIAIDSLDKISKVLDVELSSFFT | -1.69
14 | HMDTNELIDRYVNEVGQHLPRKTRADIEMELRSLLLDTLEEQSGGEPTPKMAAEVLREFGHPEEIAAQYH | -0.386
15 | HMDTRKKLEQIFKLFDKTGTGMVNIDEFKSVLKLFMEEIDEKFGNYFIAYFDENGDGKIEFEEFADVVL | -0.444
16 | HMDTSAHEVLSAIRSIIEDEDKRHPLSDEAITSRLSQQGYDIARRTVAKYRERLGLPVARLRRE | -0.26
17 | HMDVALEALDESDGAVRLQFSGALQTYLNDSTTAASLEAISKTFRAFYEAAGRPVDTLEVYAAGEPVT | 0.105
18 | HMDVDKQLDQLLAAMIPDKSLRQTIKTKAFNELVDNELADKDISSWTKQTMDVFMTRAEDMFGAM | -0.274
19 | HMDVEMLIDKYQLNDSEAEVLRFMKKNRQSLKTIGIRDVAKATYVSTATIINMAKKIGYSGYSELVFALGN | -1.69
20 | HMDVNAQAGYDKLQSNQLDGARHDYEQALKTDPNNVDTLLALAAIAQRQGRSADADGYRQRAIDAD | -0.378
21 | HMDVNHVIIDHKGNSIQAIIDSIDLDNVYYQSKIKKESEVIDIDKVYFIFNDFDRVYHYDWSYYENL | -0.166
22 | HMDVNLSIRSGETIGIIGSTGSAKSTLVQLIPRLYDTTEGEVLVGGVNVKNYDLEALRNSVAMVLQKN | -0.112
23 | HMDVPNLVGEEIKDVRRTLRHFQLEVIGEGSKIVSQVPKHGQRLPENTTIRVYLN | -0.0339
24 | HMDVPNLVGKTLEEAENELKKLNIRYNVTERADEAPKDTVIEQSPKPYEAMEPGTVVNLVISSGPA | ≥ 1.04

Row | Sequence | soluble fraction (log2)
25 | HMDVQPHIYLRKLDQFWPADLHSLILYTLDGRRLWSADSGNIPALPHRASSLVILEATWDNGQRTRRKQFL | -1.75
26 | HMDVRKSISDLKALGLSDAAVTVYGTIGNKPVHIDKIVSELGIPVFKVLTALTQLEMKGLVTAMQGRMYVL | -2.13
27 | HMDVSASEVGLTGRQTDVLSLMVKGRSNRDIAELLGLSEGTVKIHITAIFKALGVASRTQALVAAARLGLK | -0.82
28 | HMDVSLVEQTQRDILEYISKNNSNAQLPKEQEFVGLLGVSRVVVREALSRLRALGIIETKRKKGTVVVVPE | -1.09
29 | HMDWVAYGAELRRRRLLAGWSVAELSRRTNLSTSIIYQVEQARTRLRPSQLTLAKLAAALGMP | -3.1
30 | HMDYAQAQRQAESAIALRPDVERLRLLLIYALQKQGKLREAEQAAADAIKSGLDTPALRQARANLRP | -0.732
31 | HMDYGSISFINWSIEVLSVIKTRLDRGDKIIDEVSGEKYTASSFEKFVRKNFSSYIFSQVYAEDHKK | -2.73
32 | HMDYHTIQTGDKGDEVLRLQQALAEYGYYEGDLDGRFGQQTRRAVERFQYSHGLTADGIAGRNTLSVLYD | -0.181
33 | HMDYIITHYPDNKRFETQVDGVVAFVQYRLSGDKLDIIHTIVPPAIGGRGIAAALVKYAYDYAIENGMK | -2.13
34 | HMDYKSKLQELVQTEKRTVEYKLVDESGPAHNKSFTFEVVISGIKYGSGTGASKKIAEQNAAKEALEKLA | -0.277
35 | HMDYKSTLQELVQTVKKSVTYEVIDEEGPSHNKTFTSIVKIDGIVMGKGTAGSKKASEQEAARDALSKR | 0.42
36 | HMDYLYHNGKEIDQGSIMYKMEDYSDGIFELQSAKYADGTELDEKELEELESTQELIDWVMIDFVS | 0.675
37 | HMDYNSYGLTERELELVDYVLKGYSRKEMAEASGLKVNTIGSYMKKIYRKLNIHNRTELKERFI | -0.119
38 | HMDYNYLVFVTNTGPRSIAVEDLEMTVSDGKLVVSSGADGETFDLSTLTKMYFSDAAVVSINDV | -1.1
39 | HMDYQYILVDVKDRIATVTINRPEYSNAFARESYYEIADAMNTLGARDDVGVIVITGAGKHFSAGGDIKRF | -0.777
40 | HMDYYKILGLSTSATLDQIKKAFRQLAIEFHPDKNPNNPTAEDKFQRISEAYAVLSNPEKRAEYDRSY | -0.0123
41 | HMEAAETAVVTGTIVNIRSGPTLDFEAFAQVKQGDRLPVLDKFYNWYYVKLPSGVNGWISGQLVRIEQ | -2.86
42 | HMEAELNSLVKTYENMKPKAAAQVFEELDMDVLLDVVERMKEKKLAPILAQVTPTRAKEITYELTQRR | -0.102
43 | HMEAFDYLGRRTRDLLERQGWTTVPLVRDAYLAVPGGERLLQVPGFGRKSLREVRRWLWLQIGDPRFE | -1.25
44 | HMEAIYKKNKNLIHTVIRDNFPFLIDTADYEDAFQEGSIGLIRAIDRFDDGLEYKFSSYAYTAIRNQIA | -1.15
45 | HMEALGLSPRQVDVLRLLVEGRSNKMIMRELELSESTVKTHLQAIFRRLGVSSRTQAVVAAARLGL | -1.2
46 | HMEALSAREIEILQALETGASNRELAKMLFISEATVKTHLVHIYQKLGVGTRTAAITEARERRV | -2.1
47 | HMEANAYFDAYPDVAAEWARLSGSDEGKATLSAIGVTTPQQFAQYHYTTFGSKENRNAPVGYTP | 0.072
48 | HMEANPLTDREKEVLELVADGKNTKEIAQELSIKSGTVRNYISMILEKLEVKNRIEAITRSKEKGWF | -0.161

Row | Sequence | soluble fraction (log2)
49 | HMEAPMPIFWRPQFRIGHDDIDADHRYLILLINTVELVLRFPDDPRNVELALTELRRYAEDHFEREER | -0.0783
50 | HMEAQAHYDAIYKAHPNADSIAQSAEFKAWVDAQPSVVRNAYWQLFDPKEGGTAEQIVEVFDAFVKSS | 0.327
51 | HMEDDIRSSIRTLDQFISKNQITLSKDVKNYILQLLSNDRMVTINELEKIKIYYDSNENIDLDTVKILLN | -0.796
52 | HMEDEEILNEIRHTEQYVYYFGNYIMEHHVSRGLSKEKVIASLARELQIEIADIREDFDGMIEQIKTNILN | -0.329
53 | HMEDESSIERYLGSGAIKGIGPSLAARIVKKFGKDTFRIIEQEPERLAEIKGISERKAMEISTLMEEK | -0.056
54 | HMEDGRLPPPGTVLRREYKGRAVFVRVLPKGFEFEGEVYRSLSAIAAKVTGSHWNGFRFFGLHE | -3.01
55 | HMEDHMVVFGKGGRITRLPDKATVLEYLDAANFFASRSSVVKVNGKLASLDQTLRDGDSIEIVD | -0.407
56 | HMEDINAVLAENLRRLRESRRLSLDAVARLTGVSKSMLGQIERGEVNPTVSTMWKIAGGLKVNFTALFRRE | -3.79
57 | HMEDIQPSVIFQNNMIDGFKKFGVSFLQNRRNVNVNTLNGLASAGTYPKWQQLLVNKISYIDMLLSTGG | 0.0954
58 | HMEDKIIVTVPGEYHLERIDRFLAANLEEDLSRSLIQRYIRENLITVNGEAVRANYKVKTDDEILITFPQ | -0.842
59 | HMEDLAERLDNLSTMYAKMDPVRAAQVLLESKNKSENIEVLKRLKPKSLGLILENMPPREAYDYVSELQ | 0.0743
60 | HMEDLGYVKVASQTAAIRKSAAVQAGQIGTVHEGETYRYLGEEEGWYLVEYNGQKAYISWDDGEL | -0.323
61 | HMEDMMKALLDVVRAQHTATEGSEERPFDINDIIDMALNITGRPEEPEEQQELSDTIQKLAESLAPDIFP | -0.424
62 | HMEDNKLKNEIKNELVSHLEKPYSVEDLADALKYHGSAAFKLIVQELAILERERAVVVTHDGNFKINSS | -1.11
63 | HMEDPAVYYKILQIPPDASLSEIHRAFEKITSAWDPERYPHISSWKETSAKKLQEIRNAYEKLLILRETG | -0.269
64 | HMEDPFLWVEKLGSSDWIEREESAEKLLEAGEASVEALRTALTHPDLEVRERVRELLSVISPL | 0.409
65 | HMEDPRVTEIKNLQQDLAKKFKPTQGPASASDAVERVTAITTVMTKVAALPEDLRSEAMQPGKKM | -0.327
66 | HMEDQFWQNRAEMALASARRAGRIVTYAEMADAADIPAPQRIHKLTLWLEATMRQDHASGQPLRAALV | 0.0883
67 | HMEDQITNQQFTMTKQSILDLLVKKSYPPYELANELHLKKEEVLPIIRFLIAENEIHFKDGMLHLPH | -1.01
68 | HMEDQLDSLKDIIYDYLENNELYYNDLQEFKKIIIENMEFIHPNLNHKLIDNNFFKLINFKLEYNF | -0.152
69 | HMEDSSSILNRMRKLIALLNRASEAYYKENKEIISNFEYDRLYDELLGLESRSNTVLSGSPTYKV | -1.87
70 | HMEDTFEYPVSVNGKLRFKIELPVSMEKDEIRNIVLNDERAKKWLATGTLTNLIVVPNRIINIVIK | -0.528
